The values that follow are results of earlier work, collected in PMC11603612.

Among the targets are Glu164 (UniProt position 147, TREDVEKHLAK); Glu161 (UniProt position 144, GRLTREDVEKH); Asp145 (UniProt position 128, AEHNLDASAIK); His166 (UniProt position 149, EDVEKHLAKAP); Glu141 (UniProt position 124, RRLLAEHNLDA); His142 (UniProt position 125, RLLAEHNLDAS); Asp162 (UniProt position 145, RLTREDVEKHL); Asp129 (UniProt position 112, EEQNNDALSPA); Glu38 (UniProt position 38, QGLAIEATPAN); Glu17 (UniProt position 17, KGKKGEIKNVA); Asp23 (UniProt position 23, IKNVADGYANN); Glu54 (UniProt position 54, AQKQKEQRQAA); Glu86 (UniProt position 112, ITDCRETGSSK); His105 (UniProt position 131, TQANKHIIVAC); Asp38 (UniProt position 64, RNLTKDRCKPV); Asp53 (UniProt position 79, HESLADVQAVC); Asp121 (UniProt position 147, VPVHFDASV--); His48 (UniProt position 74, VNTFVHESLAD); Glu111 (UniProt position 137, IIVACEGNPYV); His12 (UniProt position 38, KFERQHMDSST); Asp14 (UniProt position 40, ERQHMDSSTSA); Glu9 (UniProt position 35, AAAKFERQHMD); Asp83 (UniProt position 109, TMSITDCRETG); Glu2 (UniProt position 28, PSLGKETAAAK); Glu49 (UniProt position 75, NTFVHESLADV); His119 (UniProt position 145, PYVPVHFDASV); Glu119 (UniProt position 119, HQIKWEWVKGH); Glu147 (UniProt position 147, MNPTLEDTGYQ); His127 (UniProt position 127, KGHAGHPENER); Glu154 (UniProt position 154, TGYQVEV----); Asp108 (UniProt position 108, LWQRLDAALGQ); Asp94 (UniProt position 94, GWKTADKKPVK); His124 (UniProt position 124, EWVKGHAGHPE); Glu131 (UniProt position 131, GHPENERCDEL); Asp134 (UniProt position 134, ENERCDELARA); Glu32 (UniProt position 32, RYRGREKTFSA); Glu61 (UniProt position 61, LEALKEHCEVI); Glu64 (UniProt position 64, LKEHCEVILST); Asp10 (UniProt position 10, VEIFTDGSCLG); Asp70 (UniProt position 70, VILSTDSQYVR); His62 (UniProt position 62, EALKEHCEVIL); Asp19 (UniProt position 101, LIKAIDGDTVK); His8 (UniProt position 90, STKKLHKEPAT); Glu73 (UniProt position 155, NAKKIEVEFDK); His121 (UniProt position 203, KPNNTHEQHLR); Asp21 (UniProt position 103, KAIDGDTVKLM); Glu10 (UniProt position 92, KKLHKEPATLI); Glu43 (UniProt position 125, LVDTPETKHPK); Glu101 (UniProt position 183, GKMVNEALVRQ); Glu122 (UniProt position 204, PNNTHEQHLRK); Glu67 (UniProt position 149, TKKMVENAKKI); Glu52 (UniProt position 134, PKKGVEKYGPE); Asp40 (UniProt position 122, RLLLVDTPETK); Asp95 (UniProt position 177, AYIYADGKMVN); Glu75 (UniProt position 157, KKIEVEFDKGQ); Glu70 (UniProt position 70, VASECEVKCMP); Glu88 (UniProt position 88, GQKVGEFSGAN); Glu47 (UniProt position 47, FHSLSEKYSNV); Asp58 (UniProt position 58, IFLEVDVDDCQ); Glu95 (UniProt position 95, SGANKEKLEAT); Glu68 (UniProt position 68, QDVASECEVKC); Asp16 (UniProt position 16, FQEALDAAGDK); Glu103 (UniProt position 103, EATINELV---); Glu98 (UniProt position 98, NKEKLEATINE); Asp60 (UniProt position 60, LEVDVDDCQDV); Asp64 (UniProt position 64, VDDCQDVASEC); Asp61 (UniProt position 61, EVDVDDCQDVA); Glu13 (UniProt position 13, KTAFQEALDAA); Asp20 (UniProt position 20, LDAAGDKLVVV); Glu56 (UniProt position 56, NVIFLEVDVDD); Glu72 (UniProt position 822, QNLKKEKGLF-); Asp46 (UniProt position 796, HLSDEDFKAVF); Glu45 (UniProt position 795, NHLSDEDFKAV); Asp44 (UniProt position 794, ENHLSDEDFKA); Asp5 (UniProt position 32, SAASTDYWQNW); Asp107 (UniProt position 134, DGGTYDIYTTT); His157 (UniProt position 184, NAWKSHGMNLG); Asp122 (UniProt position 149, PSIDGDRTTFT); Asp120 (UniProt position 147, NAPSIDGDRTT); Glu79 (UniProt position 106, RSPLIEYYVVD); Asp12 (UniProt position 39, WQNWTDGGGIV).

The target in series [1] is Glu48 (UniProt position 48, NLKALEAQKQK).
Series [2] has as its target Asp8 (UniProt position 8, VIFLKDVKGKG).
The target in series [3] is Glu6 (UniProt position 6, MLKQVEIFTDG).
Series [4] deals with Glu57 (UniProt position 57, AIVALEALKEH).
Series [5] deals with Glu48 (UniProt position 48, TNNRMELMAAI).
The target of series [6] is Glu135 (UniProt position 135, NERCDELARAA).
Series [7] has as its target Glu129 (UniProt position 129, HAGHPENERCD).
In series [8] the target is Glu57 (UniProt position 139, EKYGPEASAFT).
Series [9] addresses Glu129 (UniProt position 211, HLRKSEAQAKK).
In series [10] the target is Glu135 (UniProt position 217, AQAKKEKLNIW).
Series [11] addresses Glu6 (UniProt position 6, MVKQIESKTAF).
Series [12] deals with Asp8.

Consider “BBL (peripheral subunit-binding domain of 2-oxoglutarate dehydrogenase E2) (Escherichia coli (inferred))”, for which the pKa in the series with Glu164 was 4.5; with Glu161 it was 3.7; in the series with Asp145, 3.7; in the series with His166, 5.4; in the series with Glu141, 4.5; with His142 it was 6.5. The pKa with Asp162 is reported as 3.2; with Asp129, 3.9.

Turning to “N-terminal domain of ribosomal protein L9 (NTL / NTL9) (Geobacillus stearothermophilus (inferred))”, the pKa with Glu38 is 4; with Glu48 [1], 4.2; with Glu17 it was 3.6; with Asp8 [2], 3; with Asp23, 3.1; with Glu54 it was 4.2.

For “Ribonuclease A (RNaseA) (Bos taurus (inferred))”, the pKa is recorded as 4.1 in the series with Glu86; 6.7 in the series with His105; 3.5 with Asp38; 3.9 in the series with Asp53; 3.1 with Asp121; 6 in the series with His48. The pKa with Glu111 is reported as 3.6; in the series with His12 it was 6.2; with Asp14, 2; with Glu9, 4; with Asp83 it was 3.5; in the series with Glu2 it was 2.8. The pKa in the series with Glu49 is given as 4.7; with His119, 6.1.

As to “Ribonuclease HI (RNaseH) (Escherichia coli)”, the pKa is recorded as 4.1 with Glu119; 4.2 with Glu147; 7.9 with His127; 4.5 with Glu6 [3]; 3.2 in the series with Glu57 [4]; 4.4 in the series with Glu154. Moreover, the pKa with Asp108 is listed as 3.2; with Asp94 it was 3.2; with His124, 7.1; with Glu131 it was 4.3; in the series with Asp134, 4.1; in the series with Glu32 it was 3.6. For the same substance, the pKa with Glu61 is listed as 3.9; with Glu64, 4.4; with Glu48 [5], 4.4; with Asp10 it was 6.1; with Asp70, 2.6; with Glu135 [6], 4.3. Besides, the pKa with Glu129 [7] was 3.6; with His62, 7.

Consider “Staphylococcal nuclease (SNase) (Staphylococcus aureus (inferred))”, for which the pKa in the series with Glu57 [8] is given as 3.5; with Asp19 it was 2.2; with His8 it was 6.5; with Glu73, 3.3; with His121, 5.2; in the series with Asp21, 6.5. Besides, the pKa is reported as 2.8 with Glu10; 4.3 with Glu43; 3.8 in the series with Glu129 [9]; 3.8 with Glu101; 3.9 with Glu122; 3.8 with Glu67. For the same substance, the pKa with Glu52 is reported as 3.9; in the series with Asp40, 3.9; in the series with Asp95, 2.2; with Glu75, 3.3; with Glu135 [10], 3.8.

“Thioredoxin (residue set of human thioredoxin) (Homo sapiens (inferred from residue set; not stated))”: the pKa with Glu70 is listed as 4.6; with Glu88, 3.7; with Glu47, 4.1; with Asp58, 5.3; in the series with Glu95, 4.1; with Glu68, 4.9. Besides, the pKa with Asp16 is recorded as 4; in the series with Glu103, 4.4; in the series with Glu98, 3.9; with Asp60 it was 2.8; with Asp64, 3.2; with Asp61 it was 4.2. Besides, the pKa with Glu13 was 4.4; with Asp20 it was 3.8; with Glu6 [11] it was 4.8; with Glu56, 5.1.

Regarding “Turkey ovomucoid third domain (OMTKY3) (Meleagris gallopavo (inferred))”, the pKa was 2.7 in the series on Asp8 [12]; 2.3 with Asp27; 7.5 in the series with His53; 4.1 in the series on Glu11; 4.8 in the series on Glu44; 3.2 in the series on Glu20.

On to “Villin headpiece subdomain HP36 (Gallus gallus (inferred))”, for which the pKa is given as 4.4 with Glu72, 3.5 with Asp46, 4 in the series with Glu45 and 3.1 with Asp44.

For the substance “Xylanase (family 11 endo-1,4-beta-xylanase) (Bacillus circulans (inferred))”, the pKa with Asp5 is given as 3; in the series with Asp107, 2.7; in the series with His157, 6.5; with Asp122 it was 3.6; with Asp120 it was 3.2; with Glu79, 4.6. The pKa with Asp12 was 2.5.
